Experimental data from patent US7547509B2, “Cyanovirin variant-polymer conjugates” (priority 2002, dated 2009).

What was measured:
influenza A/Udorn (H3N2) = assay: Influenza virus inactivation assay (protection of MDCK cells); assay type: cell-based; conditions: read on day 5, read-out: ED50 (dose required to protect 50% of MDCK cells from influenza infection)
HIV = assay: Anti-HIV bioassay conducted at the National Cancer Institute; assay type: cell-based; conditions: against HIV, methods of U.S. Pat. No. 5,843,883
Protocol: Bioassays were conducted at the National Cancer Institute using the methods described in U.S. Pat. No. 5,843,883 (column 20, lines 20-55), which patent is incorporated herein by reference.

[1] = Acute toxicity dose escalation study in mice; assay type: in vivo, Hsd:ICR(CD-1) mice; conditions: intravenously on three consecutive days, high doses / equivalent dose
Protocol: To compare the acute toxicity of native CV-N and the PEG30 kD-MAL-CV-N(Q62C) conjugate, an in vivo dose escalation study was performed in which Hsd:ICR(CD-1) mice were administered modified or unmodified CN-N intravenously on three consecutive days.

B1: Cyanovirin-N (protein, listed as Nostoc ellipsosporum)
chain: LGKFSQTCYNSAIQGSVLTSTCERTNGGYNTSSIDLNSVIENVDGSLKWQPSNFIETCRNTQLAGSSELAAECKTRAQQFVSTKINLDDHIANIDGTLKYE
For B1, the EC50 (influenza A/Udorn (H3N2)) was 2.56 nM, the ED50 (HIV) was 1 ng/mL and the “acute toxicity (observation)” value [1] was “death of all of the mice”.
